T1: FcgRIIb extracellular domain, C-terminal His tag (human, UniProt P31994 43-217)
T1 construct: extracellular domain; Soluble analyte in Biacore; also called FcγRIIb; not shown: His tag at the C terminus
T1 sequence (looked up): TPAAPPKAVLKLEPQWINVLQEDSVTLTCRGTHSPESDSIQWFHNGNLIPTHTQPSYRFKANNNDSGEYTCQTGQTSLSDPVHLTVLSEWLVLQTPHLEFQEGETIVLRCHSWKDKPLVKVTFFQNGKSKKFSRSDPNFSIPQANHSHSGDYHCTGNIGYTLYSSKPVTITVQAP

T2: FcgRIIa H type extracellular domain, C-terminal His tag (human, UniProt P12318 34-217)
T2 construct: extracellular domain; Soluble analyte in Biacore; also called FcγRIIa H; FcγRIIa(H); not shown: His tag at the C terminus
T2 sequence (looked up): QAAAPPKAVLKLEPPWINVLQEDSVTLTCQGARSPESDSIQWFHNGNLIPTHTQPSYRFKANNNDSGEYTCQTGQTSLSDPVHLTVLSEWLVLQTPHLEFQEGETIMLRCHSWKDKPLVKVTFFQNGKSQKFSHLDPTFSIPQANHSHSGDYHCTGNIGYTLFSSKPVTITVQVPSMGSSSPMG

T3: FcgRIIa R type extracellular domain, C-terminal His tag (human, UniProt P12318 34-217)
T3 construct: extracellular domain; Soluble analyte in Biacore; also called FcγRIIa R; FcγRIIa(R); not shown: His tag at the C terminus
T3 sequence (looked up): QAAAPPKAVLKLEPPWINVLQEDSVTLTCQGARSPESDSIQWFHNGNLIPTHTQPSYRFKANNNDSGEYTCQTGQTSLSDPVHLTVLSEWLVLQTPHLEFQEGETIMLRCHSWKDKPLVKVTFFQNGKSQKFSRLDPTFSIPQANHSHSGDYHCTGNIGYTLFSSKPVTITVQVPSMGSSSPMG


Assays:
Experiment in all cases: SPR (Biacore); KD of H240-Kn120/H240-Hl068/L73-k0 divided by KD of the variant
[1] = target: T1, FcgRIIb extracellular domain, …
Experimental: (§1) H240-Kn179/H240-H1089/L73-k0, H240-Kn180/H240-Hl089/L73-k0, H240-Kn192/H240-Hl204/L73-k0, and H240-Kn193/H240-Hl204/L73-k0 were prepared by combining each of H240-Kn192 and H240-Kn193 as an H chain, L73-k0 as the L chain, and H240-Hl089 and H240-Hl204 as the other H chain according to the method described in Reference Example 1. The variants described above were assessed for their binding to FcγR according to the method described in Reference Example 8.
(§2) Analysis of interaction between objective antibody and the FcγR was carried out using Biacore T100 (GE Healthcare), Biacore T200, Biacore A100, and Biacore 4000. HBS-EP+ (GE Healthcare) was used as the running buffer, and the measurement temperature was set to 25° C. Chips produced by immobilizing the antigen peptide by the amine coupling method to a Series S sensor Chip CM5 (GE Healthcare), chips produced by allowing preliminarily biotinylated antigen peptides to interact with and immobilize onto a Series S Sensor Chip SA (certified) (GE Healthcare), chips produced by immobilizing Protein L (ACTIGEN, BioVision) to Series S Sencor Chip CM5 (GE Healthcare), or chips produced by immobilizing Protein A/G (Thermo Scientific) to Series S Sencor Chip CM5 (GE Healthcare) were used. Antibodies of interest were captured onto these chips, and allowed to interact to each FcγR diluted with running buffer. To regenerate and repeatedly use the chip, the antibodies captured onto the chip were washed off by reacting 10 mM glycine-HCl, pH 1.5.

[2] = target: T2, FcgRIIa H type extracellular domain, …
Experimental: as §1, §2

[3] = target: T4, FcgRIIIa F type extracellular domain, C-terminal His tag (human, UniProt P08637 17-208)
T4 construct: extracellular domain; Soluble analyte in Biacore; also called FcγRIIIa F; not shown: His tag at the C terminus
T4 sequence (P08637 17-208): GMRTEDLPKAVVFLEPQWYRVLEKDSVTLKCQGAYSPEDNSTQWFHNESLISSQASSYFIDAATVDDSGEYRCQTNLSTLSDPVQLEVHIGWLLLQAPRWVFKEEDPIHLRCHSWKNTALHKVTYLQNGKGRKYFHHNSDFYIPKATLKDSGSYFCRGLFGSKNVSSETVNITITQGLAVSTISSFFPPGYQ
Experimental: as §1, §2

[4] = target: T5, FcgRIIIa V type extracellular domain, C-terminal His tag (human, UniProt P08637 17-208)
T5 construct: extracellular domain; Soluble analyte in Biacore; also called FcγRIIIa V; not shown: His tag at the C terminus
T5 sequence (P08637 17-208 F176V): as the sequence (P08637 17-208) above, with F160V counted along it
Experimental: as §1, §2

[5] = target: T3, FcgRIIa R type extracellular domain, …
Experimental: as §1, §2

| relative KD [1] | relative KD [2] | relative KD [3] | relative KD [4] | relative KD [5] | Binder |
| --- | --- | --- | --- | --- | --- |
| 0.4 | 0.9 | 0.1 | 0 | 1.1 | H240-Kn179/H240-Hl089/L73-k0 (antibody, human IgG1, kappa, Combination of E294R in the Kn chain and G236T in the Hl chain; also called H240-Kn179/H240-HI089/L73-k0) heavy 1: QDQLVQSGAEVKKPGASVKVSCKASGFNIKDTYIQWVRQAPGQGLEWMGRIDPLRKQTKYREKFEGRVTITADTSTNTAYMELSSLRSEDTAVYYCVRSGREFDYWGQGTLVTVSSASTKGPSVFPLAPSSKSTSGGTAALGCLVKDYFPEPVTVSWNSGALTSGVHTFPAVLQSSGLYSLSSVVTVPSSSLGTQTYICNVNHKPSNTKVDKKVEPKSCDKTHTCPPCPAPEYYWGPMVFLFPPKPKDTLMISRTPEVTCVVVDVSDEDPEVKFNWYVDGVEVHNAKTKPREKQYNATYRVVSVLTVLHQDWLNGKEYKCKVSNKDLPAPIEKTISKAKGQPREPQVCTLPPSRDELTKNQVSLWCLVKGFYPSDIAVEWESNGQPENNYKTTPPVLDSDGSFFLYSKLTVDKSRWQQGNVFSCSVMHEALHNHYTQKSLSLSP heavy 2: QDQLVQSGAEVKKPGASVKVSCKASGFNIKDTYIQWVRQAPGQGLEWMGRIDPLRKQTKYREKFEGRVTITADTSTNTAYMELSSLRSEDTAVYYCVRSGREFDYWGQGTLVTVSSASTKGPSVFPLAPSSKSTSGGTAALGCLVKDYFPEPVTVSWNSGALTSGVHTFPAVLQSSGLYSLSSVVTVPSSSLGTQTYICNVNHKPSNTKVDKKVEPKSCDKTHTCPPCPAPELLTGPSVFLFPPKPKDTLMISRTPEVTCVVVDVSHEEPEVKFNWYVDGVEVHNAKTKPREEQYNSTYRVVSVLTVLHQDWLNGKEYKCKVSNDALPKPIEETISKAKGQPREPQVYTLPPSRCELTKNQVSLSCAVKGFYPSDIAVEWESNGQPENNYKTTPPVLDSDGSFFLVSKLTVDKSRWQQGNVFSCSVMHEALHNHYTQKSLSLSP light: DIQMTQSPSSLSASVGDRVTITCRASQDIHKYIAWYQQKPGQAPRLLIQYTSTLQPGVPSRFSGSGSGTDYTFTISSLQPEDIATYYCLQYEQLRTFGGGTKVEIKRTVAAPSVFIFPPSDEQLKSGTASVVCLLNNFYPREAKVQWKVDNALQSGNSQESVTEQDSKDSTYSLSSTLTLSKADYEKHKVYACEVTHQGLSSPVTKSFNRGEC |
| 0.5 | 1 | 0.2 | 0.2 | 1.1 | H240-Kn192/H240-Hl204/L73-k0 (antibody, human IgG1, kappa, H240-Kn192 is H240-Kn120 with Y235N and E294K; also called H240-Kn192/H240-HI204/L73-k0) heavy 1: QDQLVQSGAEVKKPGASVKVSCKASGFNIKDTYIQWVRQAPGQGLEWMGRIDPLRKQTKYREKFEGRVTITADTSTNTAYMELSSLRSEDTAVYYCVRSGREFDYWGQGTLVTVSSASTKGPSVFPLAPSSKSTSGGTAALGCLVKDYFPEPVTVSWNSGALTSGVHTFPAVLQSSGLYSLSSVVTVPSSSLGTQTYICNVNHKPSNTKVDKKVEPKSCDKTHTCPPCPAPEYNWGPMVFLFPPKPKDTLMISRTPEVTCVVVDVSDEDPEVKFNWYVDGVEVHNAKTKPREKQYNATYRVVSVLTVLHQDWLNGKEYKCKVSNKDLPAPIEKTISKAKGQPREPQVCTLPPSRDELTKNQVSLWCLVKGFYPSDIAVEWESNGQPENNYKTTPPVLDSDGSFFLYSKLTVDKSRWQQGNVFSCSVMHEALHNHYTQKSLSLSP heavy 2: QDQLVQSGAEVKKPGASVKVSCKASGFNIKDTYIQWVRQAPGQGLEWMGRIDPLRKQTKYREKFEGRVTITADTSTNTAYMELSSLRSEDTAVYYCVRSGREFDYWGQGTLVTVSSASTKGPSVFPLAPSSKSTSGGTAALGCLVKDYFPEPVTVSWNSGALTSGVHTFPAVLQSSGLYSLSSVVTVPSSSLGTQTYICNVNHKPSNTKVDKKVEPKSCDKTHTCPPCPAPELLTGPSVFLFPPKPKDTLMISRTPEVTCVVVDVSHEEPEVKFNWYVDGVEVHNAKTKPREEQYNSTYRVVSVLTVLHQDWLNGKEYKCKVSNDALPKPEEETISKAKGQPREPQVYTLPPSRCELTKNQVSLSCAVKGFYPSDIAVEWESNGQPENNYKTTPPVLDSDGSFFLVSKLTVDKSRWQQGNVFSCSVMHEALHNHYTQKSLSLSP light: DIQMTQSPSSLSASVGDRVTITCRASQDIHKYIAWYQQKPGQAPRLLIQYTSTLQPGVPSRFSGSGSGTDYTFTISSLQPEDIATYYCLQYEQLRTFGGGTKVEIKRTVAAPSVFIFPPSDEQLKSGTASVVCLLNNFYPREAKVQWKVDNALQSGNSQESVTEQDSKDSTYSLSSTLTLSKADYEKHKVYACEVTHQGLSSPVTKSFNRGEC |
| 0.4 | 1.1 | 0.1 | 0 | 1.3 | H240-Kn180/H240-Hl089/L73-k0 (antibody, human IgG1, kappa, Combination of E294K in the Kn chain and G236T in the Hl chain; also called H240-Kn180/H240-HI089/L73-k0) heavy 1: QDQLVQSGAEVKKPGASVKVSCKASGFNIKDTYIQWVRQAPGQGLEWMGRIDPLRKQTKYREKFEGRVTITADTSTNTAYMELSSLRSEDTAVYYCVRSGREFDYWGQGTLVTVSSASTKGPSVFPLAPSSKSTSGGTAALGCLVKDYFPEPVTVSWNSGALTSGVHTFPAVLQSSGLYSLSSVVTVPSSSLGTQTYICNVNHKPSNTKVDKKVEPKSCDKTHTCPPCPAPEYYWGPMVFLFPPKPKDTLMISRTPEVTCVVVDVSDEDPEVKFNWYVDGVEVHNAKTKPRERQYNATYRVVSVLTVLHQDWLNGKEYKCKVSNKDLPAPIEKTISKAKGQPREPQVCTLPPSRDELTKNQVSLWCLVKGFYPSDIAVEWESNGQPENNYKTTPPVLDSDGSFFLYSKLTVDKSRWQQGNVFSCSVMHEALHNHYTQKSLSLSP heavy 2: QDQLVQSGAEVKKPGASVKVSCKASGFNIKDTYIQWVRQAPGQGLEWMGRIDPLRKQTKYREKFEGRVTITADTSTNTAYMELSSLRSEDTAVYYCVRSGREFDYWGQGTLVTVSSASTKGPSVFPLAPSSKSTSGGTAALGCLVKDYFPEPVTVSWNSGALTSGVHTFPAVLQSSGLYSLSSVVTVPSSSLGTQTYICNVNHKPSNTKVDKKVEPKSCDKTHTCPPCPAPELLTGPSVFLFPPKPKDTLMISRTPEVTCVVVDVSHEEPEVKFNWYVDGVEVHNAKTKPREEQYNSTYRVVSVLTVLHQDWLNGKEYKCKVSNDALPKPIEETISKAKGQPREPQVYTLPPSRCELTKNQVSLSCAVKGFYPSDIAVEWESNGQPENNYKTTPPVLDSDGSFFLVSKLTVDKSRWQQGNVFSCSVMHEALHNHYTQKSLSLSP light: DIQMTQSPSSLSASVGDRVTITCRASQDIHKYIAWYQQKPGQAPRLLIQYTSTLQPGVPSRFSGSGSGTDYTFTISSLQPEDIATYYCLQYEQLRTFGGGTKVEIKRTVAAPSVFIFPPSDEQLKSGTASVVCLLNNFYPREAKVQWKVDNALQSGNSQESVTEQDSKDSTYSLSSTLTLSKADYEKHKVYACEVTHQGLSSPVTKSFNRGEC |
